# Data: patent US20100028862A1 (REPLIDYNE, published 2010)
# T1: P. aeruginosa χ subunit (untagged) (Pseudomonas aeruginosa, UniProt O68823 2-142)
# T1 construct: holC, PA3832, 142 amino acids; also called HolC; chi
# T1 sequence: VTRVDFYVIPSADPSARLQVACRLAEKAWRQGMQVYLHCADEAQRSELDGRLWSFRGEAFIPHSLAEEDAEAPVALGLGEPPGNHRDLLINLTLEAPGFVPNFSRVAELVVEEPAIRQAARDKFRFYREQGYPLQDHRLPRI
# T2: N-terminally hexa-His-tagged P. aeruginosa χ (Pseudomonas aeruginosa, UniProt O68823 2-142)
# T2 construct: also called immobilized tagged P. aeruginosa χ; N-terminally His-tagged HolC; not shown: N-terminal hexa-His tag encoded by vector pA1-NB-KpnI
# T2 sequence: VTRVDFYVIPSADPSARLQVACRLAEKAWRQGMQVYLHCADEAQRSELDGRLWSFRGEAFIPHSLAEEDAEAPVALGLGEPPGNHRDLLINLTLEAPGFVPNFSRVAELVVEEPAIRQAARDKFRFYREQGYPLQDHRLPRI
# Key:
# DnaA (Escherichia coli) = details: minimum DnaA concentration giving plateau in origin reconstitution assay; ATP, Mg; gel shift and filter binding mentioned without values
# [1] = test system: DnaG primase (Yersinia pestis)
# [2] = test system: DNA polymerase III core (alpha-epsilon-theta) (Yersinia pestis)
# [3] = test system: DnaG primase (Pseudomonas aeruginosa); details: reconstituted P. aeruginosa holoenzyme assay, 22 C
# [4] = test system: PolC (Streptococcus pyogenes); details: reconstitution assay; template inferred
# [5] = target: DNA polymerase III alpha-epsilon (DnaE/DnaQ) (Pseudomonas aeruginosa) (UniProt Q9HXZ1+G3XD54); details: E. coli DnaG-primed holoenzyme assay, 30 C
# [6] = target: T1, P. aeruginosa χ subunit (untagged); assay: co-expression and co-purification (ammonium sulfate, Q Sepharose)
# [7] = target: T2, N-terminally hexa-His-tagged P. …; assay: Ni-NTA magnetic bead pull-down with immobilized His-tagged χ, imidazole elution
molecule,measurement,setting,value
M13 ssDNA with 306-nt insert containing DnaA-box hairpin,activity,DnaA (Escherichia coli),76 nM
M13Gori ssDNA,activity,[1],5.8e+06 U/mg
same,activity,[2],1.1e+07 U/mg
same,activity,[3],594000 U/mg
same,activity,[4],500000 U/mg
same,activity,[5],4.1e+06 U/mg
"PA4679N45 protein, P. aeruginosa DNA polymerase III holoenzyme ψ subunit (other, also called HolD; psi) LIEEQRRRAFLGAMQITSWLPRQPLPFAAPSRPELLETPPREEPAVPVRARAAIDAPQARVPQAEAPASAPSVAPAAPVEGRGIPISLPKPGAPAAKKAEPVAPVEEAPAESPAVQAPPPRFALQLLQAGSCTLLVELPTGEPFASRDPGYLLLRDLLRAAGLPDSPRLIGEPVRWPLLARGNLDQGPQAALEFVQSFVAARMEESERSRCLWLVGLPAIRFAGEGDEGSLFRELQVDGLGATWAVPGLEALMEEPALKGELWRAMRRVRQRWSSEIQ",binding result,[6],binds
same,binding result,[7],binds
